These results are taken from patent US20140113288, “METHODS OF IDENTIFYING RISK OF PREECLAMPSIA AND PREGNANCY-RELATED DISORDERS” (Academia Sinica, published 2014).

The target of data set [1] is T1, GCM1 (GCMa) (Homo sapiens, UniProt Q9NP62 Q9NP62:1-436).
T1 sequence: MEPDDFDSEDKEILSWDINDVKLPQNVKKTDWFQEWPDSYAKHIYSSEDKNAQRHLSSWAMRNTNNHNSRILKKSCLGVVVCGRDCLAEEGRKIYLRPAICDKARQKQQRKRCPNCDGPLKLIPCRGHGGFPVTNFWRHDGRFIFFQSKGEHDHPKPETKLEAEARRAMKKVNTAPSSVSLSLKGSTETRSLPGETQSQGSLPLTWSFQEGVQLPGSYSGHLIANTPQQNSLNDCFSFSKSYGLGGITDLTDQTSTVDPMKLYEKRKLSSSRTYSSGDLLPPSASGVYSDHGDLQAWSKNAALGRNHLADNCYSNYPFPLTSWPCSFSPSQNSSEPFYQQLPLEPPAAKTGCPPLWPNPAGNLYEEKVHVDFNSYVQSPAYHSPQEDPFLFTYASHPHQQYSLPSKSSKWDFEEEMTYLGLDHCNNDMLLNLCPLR
The data set can be described thus: EMSA; supershifted by anti-GCM1 antibody; 5% non-denaturing gel. Conditions: tags: C-terminal FLAG (GCM1-FLAG); label: radiolabel. The protocol:
(§1) BeWo cells stably expressing HA-GCM1 (BeWo31) (36) were treated with or without 50 μM forskolin for 24 hours before being subjected to ChIP assay using normal mouse serum or HA mAb (Sigma, St. Louis, Mo.). The immunopurified genomic fragments were amplified by ligation-mediated PCR and the resulting amplicons were fragmented and labeled with terminal labeling kit (Affymetrix, Santa Clara, Calif.) according to the manufacturer's instructions. The chips of Human promoter 1.0R array (Affymetrix) were hybridized with the labeled amplicons, followed by data analysis using the Partek software package (St. Louis, Mo.). Furthermore, RefSeq mapping data were collected from the UCSC Genome Browser's RefFlat table (The UCSC genome browser database: update 2007). The closest RefSeq 5′ end for each ChIP region was identified, regardless of whether the cluster was upstream or downstream of the 5′ end. The primer sequences for ChIP analysis of the interaction between GCM1 and HtrA4-GBS in BeWo cells are 5′-[…]-3′ (SEQ ID NO:4) and 5′-GTCTCTAGCC CTACCCG-3′ (SEQ ID NO:5). On the other hand, analysis of direct interaction between GCM1 and HtrA4-GBS was performed by electrophoretic mobility shift assay (EMSA) as previously described (22). […] The reaction mixtures were analyzed by electrophoresis on 5% non-denaturing polyacrylamide gels. […]
A general note: A gel shift assay detects complexes by their altered migration in electrophoresis.

Data set [2] deals with T1, GCM1 (GCMa). Description: EMSA; GBS mutated. Conditions: tags: C-terminal FLAG (GCM1-FLAG); label: radiolabel. The protocol:
as §1

Substitutions are numbered along the chain they refer to.

B1: HtrA4-GBS probe (dsDNA)
DNA 1: GTGAGCTTTCTTATCAGTCTGCCCTCATTGTCGGTTTT
DNA 2: AAAACCGACAATGAGGGCAGACTGATAAGAAAGCTCAC
For B1, the binding result with GCM1 (GCMa) [1] is “binds”.

B2: HtrA4-GBSmt probe (dsDNA)
DNA 1: B1 DNA 1 with C22A, C23A, C26A, A27C
DNA 2: B1 DNA 2 with T12G, G13T, G16T, G17T
As to B2, the binding result with GCM1 (GCMa) [2] is recorded as “no binding”.
